T1: CCL28 (UniProt Q9NRJ3 20-127)
T1 construct: range 20-127; also called CCL2820-127
T1 sequence (looked up): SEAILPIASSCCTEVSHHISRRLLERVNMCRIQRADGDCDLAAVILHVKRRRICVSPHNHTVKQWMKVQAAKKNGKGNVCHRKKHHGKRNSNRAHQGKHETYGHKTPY

T2: CCL27 (UniProt Q9Y4X3 25-112, limits assumed)
T2 sequence (looked up): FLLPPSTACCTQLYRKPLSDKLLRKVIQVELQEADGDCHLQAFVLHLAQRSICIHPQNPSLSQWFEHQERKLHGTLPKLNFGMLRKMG

T3: CXCL11 (UniProt O14625 22-94)
T3 sequence (looked up): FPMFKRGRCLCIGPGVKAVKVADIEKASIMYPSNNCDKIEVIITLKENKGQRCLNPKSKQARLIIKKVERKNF

B1: CCR10^QTY (receptor, not shown: small tags and cut ends)
chain: MGTEATEQVSWGHYSGDEEDAYSAEPLPELCYKADVQAFSRAFQPSVSLTVAAQGQAGNGQTQATHQAARRAARSPTSAHQQQQAQADQQQAQTQPYAAAGALQGWSLGSATCRTTSGQYSASYHAGYQYQACTSADRYVAIARALPAGPRPSTPGRAHQTSTTTWQQSQQQAQPAQQYSQDGQREGQRRCRLIFPEGLTQTVKGASATAQTAQGYAQPQGTMTACYALLGRTLLAARGPERRRALRTTTAQTAAYTTQQQPYSQAQQQDTADLLAARERSCPASKRKDVAQQTTSGQAQARCGQNPTQYAYQGLRFRQDLRRLLRGGSCPSGPQPRRGCPRRPRLSSCSAPTETHSLSWDN
modifications: Receptor labelled with NT647 dye (RED-NHS, on amines) for MST; sites not specified
notes: Expressed in SF9 insect cells and purified without detergent
B2: CXCR4^QTY (receptor, not shown: small tags and cut ends)
chain: MEGISIYTSDNYTEEMGSGDYDSMKEPCFREENANFNKTYQPTTYSTTYQTGTTGQGQTTQTMGYQKKQRSMTDKYRQHQSTADQQYTTTQPYWATDATANWYFGNFQCKATHTTYTTQQYSSTQTQAYTSQDRYLAIVHATNSQRPRKQQAEKTTYTGTWTPAQQQTTPDYTYANVSEADDRYICDRFYPNDLWTTTYQYQHTMTGQTQPGTTTQSCYCTTTSKLSHSKGHQKRKALKTTTTQTQAYYACWQPYYTGTSTDSFILLEIIKQGCEFENTVHKWTSTTEAQAYYHCCQQPTQYAYQGAKYKTSAQHAQTSTSRGSSQKTQSKGKRGGHSSTSTESESSSFHSS
modifications: Receptor labelled with NT647 dye (RED-NHS, on amines) for MST; sites not specified
B3: CXCR7^QTY (receptor)
chain: MDLHLFDYSEPGNFSDISWPCNSSDCIVVDTVMCPNMPNKSTQQYTQSYTYTYTYTTGMTANSVVVWVNIQAKTTGYDTHCYTQNQATADQWTTQTTPTWTTSLVQHNQWPMGELTCKTTHQTYSTNQYGSTYYQTCMSVDRYLSITYFTNTPSSRKKMVRRTTCTQTWQQAYCTSQPDTYYQKTVTSASNNETYCRSFYPEHSIKEWLIGMEQTSTTQGYATPYSTTATYYYQLARAISASSDQEKHSSRKTTYSYTTTYQTCWQPYHTATQLDIFSILHYIPFTCRLEHALFTAQHTTQCQSQTHCCTNPTQYSYTNRNYRYELMKAFIFKYSAKTGLTKLIDASRVSETEYSALEQSTK
modifications: The receptor was labelled with NT647 (RED-NHS dye on lysines, positions not defined) for MST. The letters do not carry this.
notes: Expressed in SF9 insect cells and purified without detergent; not shown: C-terminal His tag
B4: CCR5^QTY (receptor, not shown: small tags and cut ends)
chain: MDYQVSSPIYDINYYTSEPCQKINVKQIAARQQPPQYSQTFTYGFTGNMQTTQTQINCKRLKSMTDIYLQNQAISDQYYQQTTPYWAHYAAAQWDFGNTMCQQQTGQYFTGYYSGTYYTTQQTTDRYLAVVHAVFALKARTTTYGTTTSTTTWTTATYASQPGTTYTRSQKEGLHYTCSSHFPYSQYQFWKNFQTLKITIQGQVQPQQTMVTCYSGTQKTLLRCRNEKKRHRAVRQTFTTMTTYYQYWAPYNTTQQLNTFQEFFGLNNCSSSNRLDQAMQVTETQGMTHCCTNPTIYAYVGEKFRNYLLVFFQKHIAKRFCKCCSIFQQEAPERASSVYTRSTGEQEISVGL
modifications: Receptor labelled with NT647 dye (RED-NHS, on amines) for MST; sites not specified
notes: Expressed in SF9 insect cells and purified without detergent; also called detergent-free CCR5 variant

What was measured:
[1] = biological target: T1, CCL28; test: MicroScale Thermophoresis, labeled receptor, ligand titrated, in buffer (1x PBS, 5 mM DTT)
[2] = biological target: T2, CCL27; test: as above
[3] = biological target: T1, CCL28; test: MicroScale Thermophoresis, labeled receptor, ligand titrated, in 50% human serum
[4] = biological target: T2, CCL27; test: as above
[5] = biological target: human insulin (human, UniProt P01308 25-54; P01308 90-110); test: MicroScale Thermophoresis, 5 nM labeled receptor, insulin titrated
[6] = biological target: T4, HIV-1 coat protein gp41-120 (HIV-1); test: MicroScale Thermophoresis, labeled receptor, ligand titrated, in 50% human serum
T4 construct: also called HIV coat proteins gp41-120; HIV surface protein gp41-120

[7] = biological target: T4, HIV-1 coat protein gp41-120; test: MicroScale Thermophoresis, labeled receptor, ligand titrated, in buffer (1x PBS, 5 mM DTT)
[8] = biological target: T3, CXCL11; test: as above
[9] = biological target: T3, CXCL11; test: MicroScale Thermophoresis, labeled receptor, ligand titrated, in 50% human serum
[10] = biological target: T4, HIV-1 coat protein gp41-120; test: as above; remark: listed apart in the source

Row | Binder | Kd [1] [nM] | Kd [2] [nM] | Kd [3] [nM] | Kd [4] [nM] | binding result [5] | Kd [6] [nM] | Kd [7] [nM] | Kd [8] [nM] | Kd [9] [nM] | Kd [10] [nM]
1 | B1 | 9.3 | 3.1 | 21 | 5.6 | no binding (tested: 0.153 nM-5,000 nM insulin) |  |  |  |  | 
2 | B2 |  |  |  |  | no binding (tested: 0.153 nM-5,000 nM insulin) | 185 | 117 |  |  | 
3 | B3 |  |  |  |  | no binding (tested: 0.153 nM-5,000 nM insulin) | 7 | 1.2 | 16 | 28 | 
4 | B4 |  |  |  |  | no binding (tested: 0.153 nM-5,000 nM insulin) |  | 3.1 |  |  | 4.3

Source: US20190353654A1 (published 2019)
